Results reported in article PMC7904477 (Journal of the American Chemical Society, 2020).

T1: wt α2 (subunit α2 of E. coli class Ia ribonucleotide reductase) (E. coli, UniProt P00452 1-761)
T1 sequence (looked up): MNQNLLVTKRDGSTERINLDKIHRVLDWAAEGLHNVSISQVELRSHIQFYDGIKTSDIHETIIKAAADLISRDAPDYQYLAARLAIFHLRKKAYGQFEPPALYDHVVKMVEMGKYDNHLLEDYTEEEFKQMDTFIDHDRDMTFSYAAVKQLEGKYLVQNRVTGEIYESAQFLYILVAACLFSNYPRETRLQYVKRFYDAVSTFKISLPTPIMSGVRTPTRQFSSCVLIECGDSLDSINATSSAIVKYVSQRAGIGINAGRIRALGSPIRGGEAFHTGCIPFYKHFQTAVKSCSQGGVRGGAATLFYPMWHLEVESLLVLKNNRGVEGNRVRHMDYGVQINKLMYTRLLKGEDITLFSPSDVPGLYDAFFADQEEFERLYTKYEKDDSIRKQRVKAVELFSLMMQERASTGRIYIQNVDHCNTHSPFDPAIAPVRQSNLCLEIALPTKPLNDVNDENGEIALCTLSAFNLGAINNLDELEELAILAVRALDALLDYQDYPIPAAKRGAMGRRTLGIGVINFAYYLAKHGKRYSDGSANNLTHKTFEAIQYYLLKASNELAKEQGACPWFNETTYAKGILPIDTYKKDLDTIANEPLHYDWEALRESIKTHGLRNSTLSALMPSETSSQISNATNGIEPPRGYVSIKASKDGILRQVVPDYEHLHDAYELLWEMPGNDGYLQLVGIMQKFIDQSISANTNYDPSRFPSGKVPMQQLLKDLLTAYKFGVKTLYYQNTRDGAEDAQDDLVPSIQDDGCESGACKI


Target: T1, wt α2 (subunit α2 of E. coli class Ia …)
Experiment: competitive inhibition assay

binding result | Kd [nM] | Binder
binds |  | wt β2 (subunit β2 of E. coli class Ia ribonucleotide reductase) (enzyme, UniProt P69924 1-376, looked up, diferric-tyrosyl radical cofactor (Y122•), reconstitution yield of 1.1 Y•/β2) MAYTTFSQTKNDQLKEPMFFGQPVNVARYDQQKYDIFEKLIEKQLSFFWRPEEVDVSRDRIDYQALPEHEKHIFISNLKYQTLLDSIQGRSPNVALLPLISIPELETWVETWAFSETIHSRSYTHIIRNIVNDPSVVFDDIVTNEQIQKRAEGISSYYDELIEMTSYWHLLGEGTHTVNGKTVTVSLRELKKKLYLCLMSVNALEAIRFYVSFACSFAFAERELMEGNAKIIRLIARDEALHLTGTQHMLNLLRSGADDPEMAEIAEECKQECYDLFVQAAQQEKDWADYLFRDGSMIGLNKDILCQYVEYITNIRMQAVGLDLPFQTRSNPIPWINTWLVSDNVQVAPQEVEVSSYLVGQIDSEVDTDDLSNFQL
 | 1060 | E52Q-photoβ2 (E52Q/C268S/C305S/S355C-β2 of E. coli class Ia ribonucleotide reductase, labelled with the [Re] photooxidant at C355) (enzyme, UniProt P69924 1-376, looked up, [Re] photooxidant (tricarbonyl(1,10-phenanthroline)-4-thiomethylpyridine rhenium) covalently ligated to C355 (S355C); endogenous Y122• reduced) MAYTTFSQTKNDQLKEPMFFGQPVNVARYDQQKYDIFEKLIEKQLSFFWRPEQVDVSRDRIDYQALPEHEKHIFISNLKYQTLLDSIQGRSPNVALLPLISIPELETWVETWAFSETIHSRSYTHIIRNIVNDPSVVFDDIVTNEQIQKRAEGISSYYDELIEMTSYWHLLGEGTHTVNGKTVTVSLRELKKKLYLCLMSVNALEAIRFYVSFACSFAFAERELMEGNAKIIRLIARDEALHLTGTQHMLNLLRSGADDPEMAEIAEESKQECYDLFVQAAQQEKDWADYLFRDGSMIGLNKDILSQYVEYITNIRMQAVGLDLPFQTRSNPIPWINTWLVSDNVQVAPQEVEVSCYLVGQIDSEVDTDDLSNFQL
